Laboratory results taken from the nanobody polyreactivity screen of Harvey et al. (2022).

Assay: yeast display, Sf9 membrane polyspecificity reagent, FACS + sequencing; frameworks hold sequencing errors
Procedure, shortened: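 Galactose-induced (36–48 hours) yeast carrying a synthetic nanobody display library were exposed to 10% biotinylated, detergent-solubilized Sf9 membrane reagent at 4 °C for 1 hour. FACS followed streptavidin microbead enrichment, using low and high (top ~1%) gates for expression (anti-HA) and reagent binding (streptavidin). Colony PCR, MiSeq 2 × 250 sequencing and CDR-length filtering followed. Labels for polyreactivity reflect the gate of origin.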

Sequence | polyreactivity (PSR sort gate)
QVQLVESGGGLVQAGGSLRLSCAASGFTLFGYAMGWYRQAPGKERELVAAISKDGGSTYYADSVKGRFTISRDNAKNTVYLQMNSLKPEDTAVYSCAARVKRPQTGYDRRYGYWGQGTQVTVSS | high polyreactivity
QVQLVESGGGLVQAGGSLRLSCAASGFTLFGYAMGWYRQAPGKERELVAAISKDGGSTYYADTVKGRFTISRDNAKNTVYLQMNSLKPEDTAVYYCAARVKRPQSGYDRRYGYWGQGTQVTVSS | high polyreactivity
QVQLVESGGGLVQAGGSLRLSCAASGFTLFYNAMGWYRQAPGKERELVAAITARGGGTYYADSVKGRFTISRDNAKNPVYLQMNSLKPEDTAVYYCAADSFIPPYDHWGQGTQVTVSS | low polyreactivity
QVQLVESGGGLVQAGGSLRLSCAASGFTLGSNAMGWYRQAPGKERELVAAISWDGGRTYYADSVKGRFTISRDNAKNTVYLQMNSLKPEDTAVYYCNRASYLRGTAGGDYWGQGTQVTVSS | high polyreactivity
QVQLVESGGGLVQAGGSLRLSCAASGFTLGTYAMGWYRQAPGKERELVASITVTGGSTYYADSVKGRFTISRDNAKNTVYLQMNSLKPEDTAVYYCAASYQHFRSVNPYDSWGQGTQVTVSS | low polyreactivity
QVQLVESGGGLVQAGGSLRLSCAASGFTLGWYAMGWYRQAPGKERELVAAISRSGGSTYYADSVKGRFTISRDNAKNTVYLQMNSLKPEDTAVYSCAAEVNYAGWAVWSYYWGQGTQVTVSS | high polyreactivity
QVQLVESGGGLVQAGGSLRLSCAASGFTLLIYAKGWYRQAPGKERELVAAITWRGSGTYYADSVKGRFTISRDIAKNSVYLQMNSLKPEDTAVYYCAARTARRTYDYWGQGTQVTVSS | low polyreactivity
QVQLVESGGGLVQAGGSLRLSCAASGFTLNGYAMGWYRQAPGKERELVAAISSSGGRTYYADSVKGRFTISRDNAKNTVYLQMNCLKPEDTAVYYCAAVVYYEDGYWGQGTQVTVSS | low polyreactivity
QVQLVESGGGLVQAGGSLRLSCAASGFTLQGYAMGWYRQAPGKERELVAAIRWIGTSTYYADSVKGRFTISRDYAKNTVYFQMNSLKPEDTAVYYCAAYRYNTPFGYWGQGTQVTVSS | high polyreactivity
QVQLVESGGGLVQAGGSLRLSCAASGFTLQVYDMGWYRQAPGKERELVADISGSGDSTNYADSVKGRFTISRDNAKNTVYLQMNSLKPEDNAVYYCAAEVRGGYYGYDYWGQGTQVTVSS | low polyreactivity
QVQLVESGGGLVQAGGSLRLSCAASGFTLRAYAMGWYRQAPGKERELVAAISSGGSTYADSVKGRFTISRDNAKNTVYLQMNSLKPEDTAVYYCAADGSKLFYSKFRYVQYGYWGQGTQVTVSS | high polyreactivity
QVQLVESGGGLVQAGGSLRLSCAASGFTLRAYAMGWYRQAPGKERELVAAITQRGTGTYYADSVKGRFTISRDNAKKTVFLQMNSLKPEDTAVYYCAAEAPRWSNYYYWGQGTQVSVSS | high polyreactivity
QVQLVESGGGLVQAGGSLRLSCAASGFTLRLNAMGWYRQAPGKERELVAAITTSDDGTYYADSVKGRFTISRDNAKNSVYLQLNSLKPEDTAVYYCAADYYSVLYDYWGQGTQVTVSS | low polyreactivity
QVQLVESGGGLVQAGGSLRLSCAASGFTLRRNAMGWYRQAPGKERELVAAISRGGSTYYADSVKGRFTISRDNAKNTVYLQMNSLKPEDTAVYYCNAGWFKYYPNLQAFNYWGQGTQVTVSS | high polyreactivity
QVQLVESGGGLVQAGGSLRLSCAASGFTLRYYAMGWYRQAPGKERELVAAITSGGGSTYYADSVKGRFTISRDNAKNTVYLQMNSLKPEDTAVYYCNAQYGSLYYAVVLSNIYNYWGQGTQVTVSS | high polyreactivity
QVQLVESGGGLVQAGGSLRLSCAASGFTLRYYAMGWYRQAPGKERELVADISWSGGRTYYADSVKGRFTISRDNAKNTVYLQMNSLKPEDTAVYYCAAVRYYAHVYKSVGYDYWGQGTQVTVSS | high polyreactivity
QVQLVESGGGLVQAGGSLRLSCAASGFTLTAYAMGWYRQPPGKERELVAAITYTGGSTYYADSVKGRFTISRDNAKNTVYLQMNSLKPEDTAGYYCAAEFLSVPYDYGYWGQGTQVTVSS | high polyreactivity
QVQLVESGGGLVQAGGSLRLSCAASGFTLTRNAMGCYRQAPGKERELVAAISWSGGTTYYADSVKGRFTISRDNAKNTVYLQMNSLKPEDTAVYYCNTASWRAQYYYWGQGTQVTVSS | high polyreactivity
QVQLVESGGGLVQAGGSLRLSCAASGFTLVGYAMGWYRQAPGKERELVADINYSGGRTYYADSVKGRFTISRDNAKNTVYLQMNSLNPEDTAVYYCNAAGALSWFYYGYDYWGQGTQVTVSS | low polyreactivity
QVQLVESGGGLVQAGGSLRLSCAASGFTLVLNAMGWYRQAPGKERELVAAIRRSAGSTYYADSVKGRFTISRDNAKNTVYLQLNSLKPEDTAVYYCAACFLWAKYAYGHWGTFNYWGQGTQVTVSS | low polyreactivity
QVQLVESGGGLVQAGGSLRLSCAASGFTLWLNAMGWYRQAPGTERELVAAITTSDDGTYYADSVKGRFTISRDNAKNTVYLQMNSLKPEDTAVYYCAADYYSVLYDYWGQGTQVTVSS | low polyreactivity
QVQLVESGGGLVQAGGSLRLSCAASGFTLYGNVMGWYRQAPGKERELVASISWSGGNTYYADSVKGRFTISRDNAKNTVYLQMNSLKPEDTAVYYCNANYYDKYGYWGQGTQVTVSS | low polyreactivity

Sequence | polyreactivity (PSR sort gate)
QVQLVESGGGLVQAGGSLRLSCAASGFTLYVYDMGWYRQAHGKERELVAAINGGGSTNYADSVKGRFTISRDNAKNTVYLQMNSLKPEDTAVYYCAAEDAYGRDVYYGSDYWGQGTLVTVSS | low polyreactivity
QVQLVESGGGLVQAGGSLRLSCAASGFTLYYYTMGWYRQAPGKERELVAAITSGGDTYYADSVKGRFTISRDNAKNTVYLQMNSLKPEDTAVYYCDAKKKYHYVASYKRFEYWGQGTQVTVSS | low polyreactivity
QVQLVESGGGLVQAGGSLRLSCAASGFTMARYAMGSYRQAPGKERELVAAISWSGGSTYYADSVKGRFTISRDNAKNTVYLQMNSLKPEDTAVYYCNAVYATRIGFDYWGQGTQVTVSS | high polyreactivity
QVQLVESGGGLVQAGGSLRLSCAASGFTNAMGWYRQAPGKERELVAAISYSGDSTNYADSVKGRFTISRDNAKNTVYLQMKSLKPEDSAVYYCNASSPYDYDWGQGTQVTVSS | low polyreactivity
QVQLVESGGGLVQAGGSLRLSCAASGFTSDTNAMGWYRQAAGKERELVAAIDSGGGSTYYADSVKGRFTISRENSKNTVYFQMNSLKPEDTAVYYCNAEQTPFVASLRVGEYGYWGQGTQVTVSS | low polyreactivity
QVQLVESGGGLVQAGGSLRLSCAASGFTSRANAMGWYRQAPWKESELVAVITAGGGSTSYADSVKGRFTISRDNAKNTVYLQMNSLKPEDTAVYYCASTWYGGPYKSYYYWGQGTQVTVSS | low polyreactivity
QVQLVESGGGLVQAGGSLRLSCAASGFTSRTYAMGWYRQAPGKERELVAAITFSGGSTYYADSVKGRFTISRDNAKNTVYLQMNSLKPEDTAVYYCARDGLWYNAIWEYDYWGQGTQVTVSS | high polyreactivity
QVQLVESGGGLVQAGGSLRLSCAASGFTSWDNDMGWYRQAPGKERELVAAISRGGSTNYADSVKGRFTISRDNAKNTVYLQMNSLNPEDTAVYYCAAEDWYQRYGYEYDYWGQGTQVTVSS | low polyreactivity
QVQLVESGGGLVQAGGSLRLSCAASGFTSWVYAMGWYRPAPGKERELVAAITWSTDDTYYADSVKGRFTISRDNSKNTVYIQINSLKPEDSAVYYCAAQQYTYVETWDGYDYWGQGTQVTVSS | low polyreactivity
QVQLVESGGGLVQAGGSLRLSCAASGFTSWYDMGWYRQAPGKEMELVAAISSGGSTNYADSVKGRFTISRDNAKNTVYLEMNSLKPEDTAVYYCNAECYETGVPYFGFYYWGQGTQVTVSS | low polyreactivity
QVQLVESGGGLVQAGGSLRLSCAASGFTVAYYAMGWYRQAPGKERELVAAITGSGGRTYYADSVKGRFTISRDNAKNTVYLQMTSLKPEDTAVYYCAALTGPYKAQVHGGHTPLDYWGHGTQVTVSS | low polyreactivity
QVQLVESGGGLVQAGGSLRLSCAASGFTVGYAMGWYRQAPGTERELVAAITRGGGTRTSYADSVKGRFTISRDNAKNTVYLQMNSLKPEDTAVYYCAARRWWSPRTQYDYWGQGTQVTVSS | high polyreactivity
QVQLVESGGGLVQAGGSLRLSCAASGFTVRKYAMGWYRQAPGKERELVAAITWSGGRTYYADSVKGRFTISRDNAKNTVSLQMNSLKPEDTAVYYCAAVIQSRKYDSWGQGTQVTVSS | high polyreactivity
QVQLVESGGGLVQAGGSLRLSCAASGFTVSYNTMGWYRQAPGKERELVAAISARGTSTYYADSVKGRFTISRDNAKNTVYLQMNSLKPEDTAVYYCAAAYRIGSGYWGQGTQVTVSS | high polyreactivity
QVQLVESGGGLVQAGGSLRLSCAASGFTVWLYAMGWYRQAPGKEREFVAAISTSGGSTYADSVKGRFTISRDNAKKTVYLQMNSLKPEDTAVYYCAADDLPSTGYDYWGQRTQVTVSS | low polyreactivity
QVQLVESGGGLVQAGGSLRLSCAASGFTYFGYAMGWYRQAPGKERELVAAISTIDGDTYYADSVKGRFTISRDNAKNTVYLQMNSLKPEDTAVYYCAADDYIDGDDYWGQGTQVTVSS | low polyreactivity
QVQLVESGGGLVQAGGSLRLSCAASGFTYIYYAMGWYRQAPGKERELVAAITSGGRTYYADSVKGRFTISRDNAKNTVYLQMNSLKPEDTAVYYCAKRFTLPLSEYDYWGQGTQVIVSS | high polyreactivity
QVQLVESGGGLVQAGGSLRLSCAASGFTYRRYAMGWYRQAPGKERELVAAITWSGGSTYYADSVKGRITISRDNAKNTVYLQMNSLKPEDTAVYYCNKAYSPLYFSYNYWGQGTQVTVSS | high polyreactivity
QVQLVESGGGLVQAGGSLRLSCAASGFTYYYYAMGWYRQAHGKERELVAAISTRDGNTYYADSVKGRFTISRDNAKNTVYLQMNSLKPEDTAVYYCAADYFRYYPYDYWGQGTLVTVSS | low polyreactivity
QVQLVESGGGLVQAGGSLRLSCAASGFYYYAMGWYRQAPGKERELVAVITYSGGSTYYADSVKGRFTISRDNAKNTVYLQMNSLKPEDTAVYYCAADDYYVALPGLYDYWGQGTQVTVSS | low polyreactivity
QVQLVESGGGLVQAGGSLRLSCAASGGICRYYAMGWYRPAPGKERELVAAISRGGNTKYADSVKGRFTISRDNAKNTVYLQMNSLKPEDTAVYYCNAYTYNRYYWGQGTQVTVSS | high polyreactivity
